Measured values: US20210079056A1 (Bayer, published 2021)
Residue numbers refer to the chain shown, from its start. Blank lines part the entries; values can stand above or below the binder they belong to.

Columns and labels:
Experiment in all cases: cell-based or functional assay
rat ANP receptor (NPR-A) = biological target: T1, rat ANP receptor (NPR-A) (rat, UniProt P18910 29-1057)
T1 sequence (looked up): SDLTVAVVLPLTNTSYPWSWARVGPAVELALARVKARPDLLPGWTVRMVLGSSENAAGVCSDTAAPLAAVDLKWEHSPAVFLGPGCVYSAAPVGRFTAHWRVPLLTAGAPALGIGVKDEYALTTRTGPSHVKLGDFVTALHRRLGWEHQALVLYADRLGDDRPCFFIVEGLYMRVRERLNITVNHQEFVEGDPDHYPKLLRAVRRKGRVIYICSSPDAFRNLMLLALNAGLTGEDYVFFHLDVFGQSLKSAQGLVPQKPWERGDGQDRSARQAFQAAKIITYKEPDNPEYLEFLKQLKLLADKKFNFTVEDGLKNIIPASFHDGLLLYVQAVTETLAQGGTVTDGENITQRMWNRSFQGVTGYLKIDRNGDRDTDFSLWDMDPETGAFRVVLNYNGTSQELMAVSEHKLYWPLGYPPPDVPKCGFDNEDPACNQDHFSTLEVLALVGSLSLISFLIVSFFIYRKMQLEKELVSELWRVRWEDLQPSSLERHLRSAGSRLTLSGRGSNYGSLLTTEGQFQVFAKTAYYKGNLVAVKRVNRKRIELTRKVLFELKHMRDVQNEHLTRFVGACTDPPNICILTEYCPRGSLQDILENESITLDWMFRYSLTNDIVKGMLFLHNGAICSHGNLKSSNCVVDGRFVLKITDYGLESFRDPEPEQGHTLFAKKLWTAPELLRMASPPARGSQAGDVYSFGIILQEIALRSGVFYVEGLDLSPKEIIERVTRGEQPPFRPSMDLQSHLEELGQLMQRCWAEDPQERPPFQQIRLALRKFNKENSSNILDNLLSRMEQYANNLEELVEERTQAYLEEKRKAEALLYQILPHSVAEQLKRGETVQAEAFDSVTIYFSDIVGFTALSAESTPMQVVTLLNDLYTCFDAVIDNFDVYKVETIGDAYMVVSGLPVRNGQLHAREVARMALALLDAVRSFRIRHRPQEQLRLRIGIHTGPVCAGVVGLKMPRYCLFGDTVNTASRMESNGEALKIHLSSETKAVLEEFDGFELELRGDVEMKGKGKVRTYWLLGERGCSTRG

rat CNP receptor (NPR-B) = biological target: T2, rat CNP receptor (NPR-B) (rat, UniProt P16067 17-1047)
T2 sequence (looked up): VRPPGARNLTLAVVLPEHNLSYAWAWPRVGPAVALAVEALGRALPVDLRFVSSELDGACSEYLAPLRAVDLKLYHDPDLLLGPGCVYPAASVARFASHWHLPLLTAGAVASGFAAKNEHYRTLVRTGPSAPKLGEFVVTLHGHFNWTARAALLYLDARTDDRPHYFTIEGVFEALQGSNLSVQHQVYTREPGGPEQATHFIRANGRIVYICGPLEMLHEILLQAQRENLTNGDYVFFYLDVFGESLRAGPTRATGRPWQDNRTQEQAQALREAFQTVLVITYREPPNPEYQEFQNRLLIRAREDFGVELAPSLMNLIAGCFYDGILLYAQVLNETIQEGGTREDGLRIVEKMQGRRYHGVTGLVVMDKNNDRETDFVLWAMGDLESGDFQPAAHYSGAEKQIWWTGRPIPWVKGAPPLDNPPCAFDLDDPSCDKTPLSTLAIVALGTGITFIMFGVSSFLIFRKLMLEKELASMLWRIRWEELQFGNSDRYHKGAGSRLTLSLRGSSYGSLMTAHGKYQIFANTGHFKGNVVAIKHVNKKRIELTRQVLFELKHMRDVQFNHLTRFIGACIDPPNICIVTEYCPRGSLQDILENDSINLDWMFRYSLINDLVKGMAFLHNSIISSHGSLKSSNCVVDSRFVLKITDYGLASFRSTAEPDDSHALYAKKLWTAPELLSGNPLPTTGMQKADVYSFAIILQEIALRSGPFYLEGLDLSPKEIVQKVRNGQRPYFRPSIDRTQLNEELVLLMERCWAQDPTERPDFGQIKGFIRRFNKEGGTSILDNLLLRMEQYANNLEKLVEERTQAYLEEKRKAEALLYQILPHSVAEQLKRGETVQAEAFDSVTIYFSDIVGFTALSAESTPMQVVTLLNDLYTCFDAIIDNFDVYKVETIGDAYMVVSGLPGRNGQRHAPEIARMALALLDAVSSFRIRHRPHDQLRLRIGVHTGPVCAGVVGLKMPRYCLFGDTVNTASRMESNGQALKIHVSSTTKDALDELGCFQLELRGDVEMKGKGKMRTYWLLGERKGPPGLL

human NPRA = biological target: T3, human NPRA (human, UniProt P16066 33-1061)
T3 sequence (looked up): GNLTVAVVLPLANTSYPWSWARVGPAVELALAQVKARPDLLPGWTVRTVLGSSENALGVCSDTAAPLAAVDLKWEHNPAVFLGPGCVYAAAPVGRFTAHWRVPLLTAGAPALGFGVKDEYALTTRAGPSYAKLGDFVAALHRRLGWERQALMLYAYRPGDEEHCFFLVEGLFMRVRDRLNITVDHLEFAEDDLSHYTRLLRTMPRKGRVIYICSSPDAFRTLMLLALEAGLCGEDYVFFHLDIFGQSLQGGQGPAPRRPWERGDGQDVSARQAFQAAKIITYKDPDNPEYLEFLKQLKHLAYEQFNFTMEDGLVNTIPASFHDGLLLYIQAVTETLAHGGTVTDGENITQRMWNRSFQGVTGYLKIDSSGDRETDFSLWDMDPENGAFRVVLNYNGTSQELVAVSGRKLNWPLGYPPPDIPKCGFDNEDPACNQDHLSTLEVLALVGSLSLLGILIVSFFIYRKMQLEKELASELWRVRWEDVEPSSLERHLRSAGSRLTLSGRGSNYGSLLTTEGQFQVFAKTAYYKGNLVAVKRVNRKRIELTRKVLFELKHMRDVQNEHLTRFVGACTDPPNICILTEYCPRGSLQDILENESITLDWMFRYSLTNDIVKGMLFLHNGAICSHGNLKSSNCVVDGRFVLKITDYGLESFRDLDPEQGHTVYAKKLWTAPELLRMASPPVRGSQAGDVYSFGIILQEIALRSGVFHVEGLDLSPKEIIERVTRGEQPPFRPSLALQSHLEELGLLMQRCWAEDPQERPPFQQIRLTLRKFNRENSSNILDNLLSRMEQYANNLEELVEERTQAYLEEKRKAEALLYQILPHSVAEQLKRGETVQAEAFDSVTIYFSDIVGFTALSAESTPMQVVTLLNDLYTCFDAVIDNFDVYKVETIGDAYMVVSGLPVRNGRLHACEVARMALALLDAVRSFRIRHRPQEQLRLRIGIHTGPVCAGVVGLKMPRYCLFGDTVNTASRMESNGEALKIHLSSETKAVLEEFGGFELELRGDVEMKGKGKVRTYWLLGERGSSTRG

EC50, fluorescence of cGMP reporter cells (rat ANP receptor (NPR-A)): 1.2 µM
B1: TPP-11156 (antibody, human IgG1, lambda)
heavy: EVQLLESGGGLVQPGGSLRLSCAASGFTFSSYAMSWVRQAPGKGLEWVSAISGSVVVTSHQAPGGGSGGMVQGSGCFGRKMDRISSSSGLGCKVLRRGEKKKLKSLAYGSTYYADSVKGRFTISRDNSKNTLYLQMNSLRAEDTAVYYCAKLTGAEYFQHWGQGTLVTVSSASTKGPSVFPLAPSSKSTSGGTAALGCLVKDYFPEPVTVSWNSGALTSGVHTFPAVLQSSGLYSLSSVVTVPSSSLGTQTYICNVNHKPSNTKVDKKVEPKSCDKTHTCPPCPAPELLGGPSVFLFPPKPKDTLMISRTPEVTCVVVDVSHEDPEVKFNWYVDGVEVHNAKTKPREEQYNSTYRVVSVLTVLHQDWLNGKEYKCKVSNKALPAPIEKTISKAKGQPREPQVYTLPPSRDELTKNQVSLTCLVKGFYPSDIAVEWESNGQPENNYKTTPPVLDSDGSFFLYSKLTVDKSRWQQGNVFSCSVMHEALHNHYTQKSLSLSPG
light: QSVLTQPPSVSGAPGQRVTISCTGSSSNIGAGYDVHWYQQLPGTAPKLLIYGNSNRPSGVPDRFSGSKSGTSASLAITGLQAEDEADYYCQSYDSSLSGVVFGGGTKLTVLGQPKAAPSVTLFPPSSEELQANKATLVCLISDFYPGAVTVAWKADSSPVKAGVETTTPSKQSNNKYAASSYLSLTPEQWKSHRSYSCQVTHEGSTVEKTVAPTECS

EC50, luminescence of cGMP reporter cells (rat CNP receptor (NPR-B)): 0.0052 µM
B2: TPP-9465 (antibody)
heavy: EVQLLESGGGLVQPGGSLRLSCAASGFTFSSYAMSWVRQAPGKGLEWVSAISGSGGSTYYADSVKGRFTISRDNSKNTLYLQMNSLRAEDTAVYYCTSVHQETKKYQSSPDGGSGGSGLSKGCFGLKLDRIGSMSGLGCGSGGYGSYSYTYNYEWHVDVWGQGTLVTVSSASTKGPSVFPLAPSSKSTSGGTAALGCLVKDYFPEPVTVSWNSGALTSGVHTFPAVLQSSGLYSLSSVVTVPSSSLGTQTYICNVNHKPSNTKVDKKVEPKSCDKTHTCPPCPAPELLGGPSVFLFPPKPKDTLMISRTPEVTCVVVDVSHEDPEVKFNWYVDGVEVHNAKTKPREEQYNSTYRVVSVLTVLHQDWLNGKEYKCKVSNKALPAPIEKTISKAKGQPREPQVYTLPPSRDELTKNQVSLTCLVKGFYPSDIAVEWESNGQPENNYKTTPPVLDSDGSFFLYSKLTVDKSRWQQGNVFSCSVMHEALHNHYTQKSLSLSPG
light: B1 light

EC50, luminescence of cGMP reporter cells (rat CNP receptor (NPR-B)): 0.0041 µM
B3: TPP-12377 (antibody)
heavy: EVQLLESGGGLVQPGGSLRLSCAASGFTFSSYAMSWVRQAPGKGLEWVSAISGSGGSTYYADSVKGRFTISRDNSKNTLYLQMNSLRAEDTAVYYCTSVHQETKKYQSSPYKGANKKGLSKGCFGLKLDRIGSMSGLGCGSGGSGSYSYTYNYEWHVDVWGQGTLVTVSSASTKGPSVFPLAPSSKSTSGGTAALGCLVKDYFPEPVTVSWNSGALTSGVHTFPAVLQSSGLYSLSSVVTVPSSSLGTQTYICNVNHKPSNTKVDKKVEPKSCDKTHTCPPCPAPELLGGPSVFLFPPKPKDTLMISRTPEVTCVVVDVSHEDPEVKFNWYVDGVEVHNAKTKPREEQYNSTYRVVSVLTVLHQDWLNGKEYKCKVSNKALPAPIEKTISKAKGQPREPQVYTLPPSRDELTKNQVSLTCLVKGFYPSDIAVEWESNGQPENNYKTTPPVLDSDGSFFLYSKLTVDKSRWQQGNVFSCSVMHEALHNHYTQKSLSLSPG
light: B1 light

EC50, luminescence of cGMP reporter cells (rat CNP receptor (NPR-B)): 0.01 µM
B4: TPP-12897 (antibody)
heavy: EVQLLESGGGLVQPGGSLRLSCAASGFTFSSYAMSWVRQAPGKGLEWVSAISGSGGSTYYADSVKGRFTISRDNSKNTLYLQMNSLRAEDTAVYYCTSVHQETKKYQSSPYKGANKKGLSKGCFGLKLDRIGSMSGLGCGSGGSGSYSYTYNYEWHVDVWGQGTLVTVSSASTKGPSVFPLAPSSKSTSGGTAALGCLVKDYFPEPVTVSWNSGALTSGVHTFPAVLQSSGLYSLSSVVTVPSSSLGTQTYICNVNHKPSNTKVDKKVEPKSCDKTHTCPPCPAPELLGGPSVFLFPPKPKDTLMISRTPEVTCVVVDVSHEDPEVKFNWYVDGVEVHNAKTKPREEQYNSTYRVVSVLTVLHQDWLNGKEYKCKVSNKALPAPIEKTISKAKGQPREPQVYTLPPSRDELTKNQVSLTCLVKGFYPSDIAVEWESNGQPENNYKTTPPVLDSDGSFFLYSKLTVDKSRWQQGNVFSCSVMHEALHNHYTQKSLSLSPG
light: B1 light with S98D

log EC50 ics, cGMP assay, stable hNPRA-CHO k1 cells (human NPRA): -8.8 log M | log EC50 pcs, cGMP assay, stable hNPRA-CHO k1 cells, average (human NPRA): -9.2 log M | log EC50 pcs, cGMP assay, transient hNPRA-HEK293 cells, average (human NPRA): -9 log M | EC50, fluorescence of cGMP reporter cells (rat ANP receptor (NPR-A)): 0.017 µM
B5: TPP-5661 (antibody)
heavy: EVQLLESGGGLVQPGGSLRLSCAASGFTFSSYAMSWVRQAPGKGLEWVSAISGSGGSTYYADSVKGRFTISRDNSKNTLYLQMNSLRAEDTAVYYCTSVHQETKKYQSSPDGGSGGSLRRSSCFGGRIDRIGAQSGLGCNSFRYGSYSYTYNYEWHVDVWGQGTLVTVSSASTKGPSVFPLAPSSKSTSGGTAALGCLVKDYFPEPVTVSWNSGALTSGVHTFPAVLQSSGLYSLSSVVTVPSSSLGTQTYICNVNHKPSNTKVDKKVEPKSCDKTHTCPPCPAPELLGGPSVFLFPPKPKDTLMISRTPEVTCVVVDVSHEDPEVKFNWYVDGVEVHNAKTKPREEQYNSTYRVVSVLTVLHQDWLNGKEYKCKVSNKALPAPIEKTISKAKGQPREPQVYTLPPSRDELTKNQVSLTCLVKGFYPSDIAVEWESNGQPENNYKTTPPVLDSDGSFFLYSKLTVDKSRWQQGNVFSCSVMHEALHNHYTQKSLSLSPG
light: B1 light

EC50, fluorescence of cGMP reporter cells (rat ANP receptor (NPR-A)): 2.3 µM
B6: TPP-9902 (antibody)
heavy: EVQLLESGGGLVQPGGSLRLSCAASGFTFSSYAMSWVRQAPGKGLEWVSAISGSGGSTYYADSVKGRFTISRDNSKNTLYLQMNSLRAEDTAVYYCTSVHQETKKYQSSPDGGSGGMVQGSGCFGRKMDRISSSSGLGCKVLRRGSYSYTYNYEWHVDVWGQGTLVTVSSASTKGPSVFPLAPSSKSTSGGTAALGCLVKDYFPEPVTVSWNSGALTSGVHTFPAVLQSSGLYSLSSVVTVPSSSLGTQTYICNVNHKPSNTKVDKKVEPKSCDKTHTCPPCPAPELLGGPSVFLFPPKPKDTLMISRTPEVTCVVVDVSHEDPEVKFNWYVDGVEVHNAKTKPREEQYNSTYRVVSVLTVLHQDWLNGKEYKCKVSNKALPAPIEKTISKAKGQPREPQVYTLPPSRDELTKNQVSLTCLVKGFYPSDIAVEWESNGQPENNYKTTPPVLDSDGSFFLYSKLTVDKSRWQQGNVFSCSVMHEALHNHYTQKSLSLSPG
light: B1 light

EC50, fluorescence of cGMP reporter cells (rat ANP receptor (NPR-A)): 0.18 µM
B7: TPP-10992 (antibody, human IgG4 S228P, lambda)
heavy: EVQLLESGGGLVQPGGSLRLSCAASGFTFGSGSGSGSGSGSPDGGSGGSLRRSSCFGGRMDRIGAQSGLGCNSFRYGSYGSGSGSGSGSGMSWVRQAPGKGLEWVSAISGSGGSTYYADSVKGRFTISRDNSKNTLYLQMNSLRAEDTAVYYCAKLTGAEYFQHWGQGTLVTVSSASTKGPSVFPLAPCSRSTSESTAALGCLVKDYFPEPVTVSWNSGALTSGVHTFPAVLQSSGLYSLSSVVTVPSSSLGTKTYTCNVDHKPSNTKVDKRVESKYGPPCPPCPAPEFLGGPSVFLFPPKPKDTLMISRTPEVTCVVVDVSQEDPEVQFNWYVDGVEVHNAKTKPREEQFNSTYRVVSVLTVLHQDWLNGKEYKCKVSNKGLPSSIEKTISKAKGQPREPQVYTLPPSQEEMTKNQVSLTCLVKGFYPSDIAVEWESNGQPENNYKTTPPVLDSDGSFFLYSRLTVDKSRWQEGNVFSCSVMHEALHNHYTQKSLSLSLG
light: B1 light
